Data on 1 substance can be found in publication PMC4278885.

For assay [1], the target named is GFP-binding nanobody Enhancer (camelid). The experiment in a line: Molecular Force Assay (Protein-MFA); multiplexed measurement of Fig. 2B: nanobody on the glass slide, sfGFP on the DNA reference; references compared: unmodified 40 bp DNA, 40 bp DNA with propynyl bases, 20 bp DNA with polyamide P1, P2 or P3 (1 uM); pH 7.4; read-out NF.
For assay [2] the target is unchanged. The experiment in a line: Molecular Force Assay (Protein-MFA); Enhancer covalently on the glass slide via its C-terminus (PEG linker); GFP attached at its N-terminus to the DNA reference; reference 20 bp DNA stabilized with polyamide P1; one contact process with a single stamp; retraction 1 um/s; read-out Normalized Fluorescence (NF), 0.5 = protein bond as strong as the reference.

GFP-binding nanobody Enhancer (camelid), sequence (heavy, as listed by the source): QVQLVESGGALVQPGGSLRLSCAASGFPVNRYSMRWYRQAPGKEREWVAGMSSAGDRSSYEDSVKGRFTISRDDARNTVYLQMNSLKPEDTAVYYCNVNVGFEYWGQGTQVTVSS

On to “superfolder GFP (from UniProt P42212 1-238) (natural protein)”, for which the Normalized Fluorescence (NF), 40 bp DNA reference with propynyl bases in assay [1] amounted to 0.8. The Normalized Fluorescence (NF), 20 bp DNA reference with polyamide P1 in assay [2] is 0.353.
